{"source": "patent US20160324751A1", "about": "“METHOD OF PREPARING RECOMBINANT HUMAN TYROSINASE” (Conopco, Inc., d/b/a UNILEVER, priority 2012, published 2016)", "molecules": {"B1": {"name": "Example 1: Full length recombinant human tyrosinase, synthetic gene codon optimized for baculovirus expression in insect cells (protein, UniProt P14679 1-529, looked up)", "chain": "MLLAVLYCLLWSFQTSAGHFPRACVSSKNLMEKECCPPWSGDRSPCGQLSGRGSCQNILLSNAPLGPQFPFTGVDDRESWPSVFYNRTCQCSGNFMGFNCGNCKFGFWGPNCTERRLLVRRNIFDLSAPEKDKFFAYLTLAKHTISSDYVIPIGTYGQMKNGSTPMFNDINIYDLFVWMHYYVSMDALLGGSEIWRDIDFAHEAPAFLPWHRLFLLRWEQEIQKLTGDENFTIPYWDWRDAEKCDICTDEYMGGQHPTNPNLLSPASFFSSWQIVCSRLEEYNSHQSLCNGTPEGPLRRNPGNHDKSRTPRLPSSADVEFCLSLTQYESGSMDKAANFSFRNTLEGFASPLTGIADASQSSMHNALHIYMNGTMSQVQGSANDPIFLLHHAFVDSIFEQWLRRHRPLQEVYPEANAPIGHNRESYMVPFIPLYRNGDFFISSKDLGYDYSYLQDSDPDSFQDYIKSYLEQASRIWSWLLGAAMVGAVLTALLAGLVSLLCRHKRKQLPEEKQPLLMEKEDYHSLYQSHL", "modifications": "full-length recombinant, baculovirus-expressed", "notes": "Full length recombinant human tyrosinase, synthetic gene codon optimized for baculovirus expression in insect cells"}, "B2": {"name": "Example 6: FL lysate supernatant, 15 μg protein equivalent (protein, UniProt P14679 1-529, looked up)", "chain": "B1 chain", "modifications": "full-length insect cell lysate", "notes": "FL lysate supernatant, 15 μg protein equivalent"}, "B3": {"name": "Example 3: Sonication lysate supernatant of HIGHFIVE cells expressing FL tyrosinase (protein, UniProt P14679 1-529, looked up)", "chain": "B1 chain", "modifications": "full-length insect cell lysate"}, "B4": {"name": "Example G: Commercially sourced E. coli (bacteria) expressed recombinant human tyrosinase (protein, UniProt P14679 19-529, looked up)", "Tyrosinase": "HFPRACVSSKNLMEKECCPPWSGDRSPCGQLSGRGSCQNILLSNAPLGPQFPFTGVDDRESWPSVFYNRTCQCSGNFMGFNCGNCKFGFWGPNCTERRLLVRRNIFDLSAPEKDKFFAYLTLAKHTISSDYVIPIGTYGQMKNGSTPMFNDINIYDLFVWMHYYVSMDALLGGSEIWRDIDFAHEAPAFLPWHRLFLLRWEQEIQKLTGDENFTIPYWDWRDAEKCDICTDEYMGGQHPTNPNLLSPASFFSSWQIVCSRLEEYNSHQSLCNGTPEGPLRRNPGNHDKSRTPRLPSSADVEFCLSLTQYESGSMDKAANFSFRNTLEGFASPLTGIADASQSSMHNALHIYMNGTMSQVQGSANDPIFLLHHAFVDSIFEQWLRRHRPLQEVYPEANAPIGHNRESYMVPFIPLYRNGDFFISSKDLGYDYSYLQDSDPDSFQDYIKSYLEQASRIWSWLLGAAMVGAVLTALLAGLVSLLCRHKRKQLPEEKQPLLMEKEDYHSLYQSHL", "modifications": "E. coli expressed", "notes": "Commercially sourced E. coli (bacteria) expressed recombinant human tyrosinase"}}, "key": {"[1]": {"biological_target": "T1, human tyrosinase prepared using truncated gene (TMRL) (Homo sapiens, UniProt P14679)", "T1 construct": "The truncated version is defined as a gene whose corresponding protein extends from the N-terminus to the amino acid 472 or lower; made in house; host or cells: HIGHFIVE (BTI-TN-5B1-4) insect cells, baculovirus (PFASTBAC)", "T1 sequence (P14679 19-472 limits assumed)": "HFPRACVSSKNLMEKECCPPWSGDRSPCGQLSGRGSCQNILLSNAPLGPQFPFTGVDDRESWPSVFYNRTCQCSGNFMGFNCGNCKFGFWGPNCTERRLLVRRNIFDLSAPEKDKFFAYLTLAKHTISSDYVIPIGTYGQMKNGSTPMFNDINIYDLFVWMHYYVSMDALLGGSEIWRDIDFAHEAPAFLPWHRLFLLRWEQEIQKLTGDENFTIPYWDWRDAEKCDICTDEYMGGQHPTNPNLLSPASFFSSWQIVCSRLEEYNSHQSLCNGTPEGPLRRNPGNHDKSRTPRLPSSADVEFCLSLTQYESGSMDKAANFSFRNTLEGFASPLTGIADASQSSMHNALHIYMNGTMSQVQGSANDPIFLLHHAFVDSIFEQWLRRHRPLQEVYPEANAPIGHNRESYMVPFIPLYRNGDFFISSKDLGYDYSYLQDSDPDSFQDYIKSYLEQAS", "experiment": "In vitro tyrosine to melanin assay", "format": "biochemical", "details": "TMRL (60 μg) + 50 mM Arbutin", "excerpt": "At the completion of the reaction, samples were photographed and data analyzed further in the same manner described under the DOPA+MBTH section."}, "[2]": {"tested_on": "insect cells expressing FL rHuTyrase", "experiment": "Visual examination of cell pellet prior to cell lysis", "format": "cell-based", "details": "prior to cell lysis by sonication; control uninfected cells pale", "source_text": "FIG. 2: Visual examination (prior to cell lysis by sonication) of the samples of cell pellet obtained in the case of insect cells expressing Full (FL) rHuTyrase (Example 1) as compared to the control uninfected cells (Example A)."}, "human tyrosinase [3]": {"tested_on": "human tyrosinase", "experiment": "DOPA (2 mM) oxidation assay in absence of MBTH, OD450 nm", "format": "biochemical", "details": "15 μg protein equivalent, OD450 nm after 90 min converted into ratio", "method": "DOPA oxidation activity was examined by a slightly modified version of the procedure earlier reported by Harris & Winder [Eur. J. Biochem. (1991) 198: 317-326], excluding Perchloric acid and Dimethylformamide but capturing a picture on reaction progress. Separately, in vitro melanin formation assay was carried out for 7 hrs. at 37° C., using a substrate mix (of 0.5 mM L-Tyrosine+15 μM L-DOPA) in 50 mM phosphate buffer (pH 6.8) and using indicated amounts of protein. This assay covers both tyrosine hydroxylation and DOPA oxidation activities together in the same run. Human melanocytic lysate served as the reference positive control and absence of any protein served as the no enzyme negative control (uncatalyzed background reaction) for these reactions. Assay volumes of 0.1 ml were adequate, indicating scalability for enhanced high throughput screening purposes.\nWhen the activity of 15 μg protein equivalent recombinant human tyrosinase samples were tested in DOPA (2 mM) assay (in absence of MBTH), OD450 nm values reached after 90 min. (indication of extent of oxidation) were converted into a ratio form and are tabulated below: […]"}, "human tyrosinase [4]": {"tested_on": "human tyrosinase", "experiment": "DOPA+MBTH solution phase tyrosinase enzymatic assay", "format": "biochemical", "details": "gray scale intensity difference to Example D, relative to HML (Example B); 0 = transparent, close to 1 = activity comparable to HML", "method": "Standard western blot procedure was used to examine the extent of tyrosinase protein expression as well as determine optimal time point to harvest the cells. For scale up work, it was decided to use the insect cell line known as BTI-TN-5B1-4, sold under the tradename HIGHFIVE™ further. 100 ml scale growth of “infected” HIGHFIVE™ cells were carried out and both the spent media as well as the cell pellets were collected. The latter was lyzed by regular sonication method and the activity of the tyrosinase enzyme in various samples were tested using the typical DOPA oxidation and DOPA+MBTH coupling assays.\nDOPA oxidation activity was examined by a slightly modified version of the procedure earlier reported by Harris & Winder [Eur. J. Biochem. (1991) 198: 317-326], excluding Perchloric acid and Dimethylformamide but capturing a picture on reaction progress. […]\nExample E: Growth media supernatant in which above cells were grown Reaction samples were photographed and converted into gray scale intensity (GSI) by computer software digitization. Numerical differences (di) were calculated between GSI of any sample and that of reference control background sample (Example D). dmax was the maximal difference, that between HML (positive reference control, Example B) and the reference control background sample (Example D)."}}}
{"molecule": "OC[C@H]1O[C@@H](Oc2ccc(O)cc2)[C@H](O)[C@@H](O)[C@@H]1O", "note": "[Arbutin]", "values": [{"measurement": "Scale ratio di/dmax (tyrosinase activity of TMRL with inhibitor)", "setting": "[1]", "value": 0.00}]}
{"molecule": "B1", "values": [{"measurement": "Colour of cell pellet (melanin like pigment within the cells)", "setting": "[2]", "value": "black"}]}
{"molecule": "B2", "values": [{"measurement": "Scale ratio di/dmax (Extent of DOPA oxidation)", "setting": "human tyrosinase [3]", "value": 0.90}]}
{"molecule": "B3", "values": [{"measurement": "Scale ratio di/dmax (DOPA + MBTH Reaction)", "setting": "human tyrosinase [4]", "value": 0.85}]}
{"molecule": "B4", "values": [{"measurement": "Scale ratio di/dmax (Extent of DOPA oxidation)", "setting": "human tyrosinase [3]", "value": 0.04}]}
